Data taken from patent publication US20220411514A1 (TRUEBINDING, published 2022).

How the values were obtained:
[1] = biological target: T1, Human Galectin-3 protein (Acro Biosystems, GA3-H5129) (human, UniProt P17931 2-250); experiment: ELISA, INSR binding to coated Gal3 with 3 ug/mL antibody
T1 construct: bought; also called Gal3-ECD-His; Gal3-His; not shown: linker-spaced 6-histidine tag

human Galectin-3 (Gal3) [2] = biological target: T2, human Galectin-3 (Gal3) (human, UniProt P17931 2-250, limits assumed); experiment: SPR Biacore T200, antibody captured, Gal3 analyte, 1:1 fit
T2 construct: also called hGal3; hGAL3

human Galectin-3 (Gal3) [3] = biological target: T2, human Galectin-3 (Gal3); experiment: HDX-MS
mouse Gal3 [4] = biological target: T3, mouse Gal3 (mouse, UniProt P16110 2-264, limits assumed); experiment: SPR Carterra LSA, protocol of Example 9
human Galectin-3 (Gal3) [5] = biological target: T2, human Galectin-3 (Gal3); experiment: SPR Carterra LSA, protocol of Example 9
[6] = biological target: T4, His-enterokinase cleavage site (EK)-cynoGal3 (TrueBinding in-house antigen) (cynomolgus, UniProt A0A7N9CYL1 6-247); experiment: SPR Biacore T200, antibody captured, 1:1 fit
T4 construct: also called His-EK-cynoGal3; cynomolgus Gal3; not shown: His tag and enterokinase cleavage site

mouse Gal3 [7] = biological target: T3, mouse Gal3; experiment: SPR Carterra LSA, antibody captured on Protein A/G, Gal3 analyte
human Galectin-3 (Gal3) [8] = biological target: T2, human Galectin-3 (Gal3); experiment: as above
His-EK-ratGal3 = biological target: T5, His-EK-ratGal3 (rat, UniProt P08699 2-262); experiment: SPR Biacore T200, antibody captured by anti-human Fc, 1:1 fit
T5 construct: not shown: His tag and enterokinase cleavage site
T5 sequence (looked up): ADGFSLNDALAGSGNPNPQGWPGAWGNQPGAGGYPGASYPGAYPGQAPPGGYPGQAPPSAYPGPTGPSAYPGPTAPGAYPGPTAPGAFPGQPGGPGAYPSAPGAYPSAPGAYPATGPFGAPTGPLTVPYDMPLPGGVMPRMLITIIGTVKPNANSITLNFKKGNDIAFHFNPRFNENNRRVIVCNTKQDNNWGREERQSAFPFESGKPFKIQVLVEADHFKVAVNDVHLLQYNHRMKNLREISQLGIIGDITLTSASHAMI

[9] = biological target: T4, His-enterokinase cleavage site …; experiment: SPR Biacore T200, protocol of Example 9
[10] = biological target: T1, Human Galectin-3 protein (Acro …); experiment: SPR sandwich binning, Carterra LSA
Peptide 5 of Gal3 = biological target: T6, Peptide 5 of Gal3 (human); experiment: peptide ELISA, antibody as hIgG4(S228P) at 5 ug/mL
T6 peptide: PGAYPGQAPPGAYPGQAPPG

Peptide 6 of Gal3 = biological target: T7, Peptide 6 of Gal3 (human); experiment: peptide ELISA, antibody as hIgG4(S228P) at 5 ug/mL
T7 peptide: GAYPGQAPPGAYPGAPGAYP

T4 sequence (A0A7N9CYL1 entry or part of it): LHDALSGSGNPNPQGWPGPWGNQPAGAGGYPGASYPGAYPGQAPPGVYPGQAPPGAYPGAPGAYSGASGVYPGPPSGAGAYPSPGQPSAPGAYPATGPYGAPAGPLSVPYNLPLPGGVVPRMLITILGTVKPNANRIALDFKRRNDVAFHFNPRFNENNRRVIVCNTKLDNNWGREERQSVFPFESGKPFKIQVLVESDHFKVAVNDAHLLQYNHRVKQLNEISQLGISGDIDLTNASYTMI
T2 sequence (P17931 2-250 limits assumed): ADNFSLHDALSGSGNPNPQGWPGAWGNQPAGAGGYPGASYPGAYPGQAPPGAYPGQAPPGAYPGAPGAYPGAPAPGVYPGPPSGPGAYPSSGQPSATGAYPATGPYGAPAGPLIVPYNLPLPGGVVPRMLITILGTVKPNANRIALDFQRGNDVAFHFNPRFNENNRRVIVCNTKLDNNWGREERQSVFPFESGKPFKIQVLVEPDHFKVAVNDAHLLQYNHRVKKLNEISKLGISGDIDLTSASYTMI
T1 sequence (P17931 2-250): as the sequence (P17931 2-250 limits assumed) above
T3 sequence (P16110 2-264 limits assumed): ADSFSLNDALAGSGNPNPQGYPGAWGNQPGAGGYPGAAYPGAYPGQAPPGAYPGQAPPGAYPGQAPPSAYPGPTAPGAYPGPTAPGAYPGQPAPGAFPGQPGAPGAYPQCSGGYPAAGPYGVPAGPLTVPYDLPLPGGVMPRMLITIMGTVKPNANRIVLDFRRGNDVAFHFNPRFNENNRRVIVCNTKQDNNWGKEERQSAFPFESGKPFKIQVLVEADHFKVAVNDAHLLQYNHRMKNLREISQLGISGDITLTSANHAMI

B1: 15G7.2A7 (antibody, V domains shown)
VH: EVQLQQSGPELVKPGASVKISCKASGYTFTDYYMNWVKQSHGKSLEWIGDINPNNGGTNYNQKFKGKATLTVDKSSSTAYMELRSLTSEDSAVYYCTSGYGFPYWGQGTLVTVSA
VL: DIQMNQSPSSLSASLGDTISITCRASQNINIWLSWYQQKPGNIPQLLIYKASNLHTGVPSRFSGSGSGTDFTLTISSLQPEDIATYYCLQGQSYPLTFGAGTKLVMKR
- inhibition of Gal3-INSR binding, % [1]: > 99%
- Kd (human Galectin-3 (Gal3) [2]): 27.8 nM

B2: Arg 228-Val 292 truncated form of GLUT4 (other)
chain: RYLYIIQNLEGPARKSLKRLTGWADVSGVLAELKDEKRKLERERPLSLLQLLGSRTHRQPLIIAV
- binding result (human Galectin-3 (Gal3) [3]): binds

B3: TB001 (antibody, V domains shown)
VH: QVQLVQSGSELKKPGASVKVSCKASGYTFTNYGMNWVRQAPGQGLKWMGWINTNTGEPTYVEEFTGRFVFSLETSVSTAYLQISSLKAEDTAVYFCAPYDNFFAYWGQGTTVTVSS
VL: DIVLTQSPLSLPVTPGEPASISCRSSKSLLYKDGKTYLNWFLQKPGQSPQLLIYLMSTHASGVPDRFSGSGSGTDFTLKISRVEAEDVGVYYCQQLVDYPLTFGGGTKLEIKR
- Kd (mouse Gal3 [4]): 4.2 nM
- Kd (human Galectin-3 (Gal3) [5]): 9.7 nM
- Kd [6]: 8.9 nM
- Kd (mouse Gal3 [7]): 2.3 nM
- Kd (human Galectin-3 (Gal3) [8]): 3.6 nM
- Kd (His-EK-ratGal3): 14 nM
- Kd [9]: 34 nM

B4: TB006 (antibody, V domains shown)
VH: QVQLVQSGAEVKKPGASVKVSCKASGYSFTNYYMHWVRQAPGQRLEWMGWIYPGSGNTNYNEKFQGRVTITADTSASTAYMELSSLRSEDTAVYYCSTAPGGFDVWGQGTTVTVSS
VL: DIVMTQTPLSLSVTPGQPASISCKSSKSLLHSDGITYLYWYLQKPGQSPQLLIYRMSNLASGVPDRFSGSGSGTDFTLKISRVEAEDVGVYYCAQMLEFPLTFGQGTKLEIKR
- Kd (human Galectin-3 (Gal3) [5]): 23 nM
- Kd [6]: 5.1 nM
- Kd (mouse Gal3 [7]): 40000 nM
- Kd (human Galectin-3 (Gal3) [8]): 8.9 nM
- Kd [9]: 9.4 nM

B5: 13G4.2F8 (antibody, V domains shown)
VH: QVQLQQPGAELVKPGASVKLSCKASGYTFTSYWMHWVKQRPGQGLEWIGMIHPNSGSTDYNEKFKNKATLNVDKSSSTAYIQLSSLTSEDSAVYYCTRWGIYYYARDYWGQGTTLTVSS
VL: DIVMTQSQKFMSTSVGERVSITCKASQNVGTNVAWYQQKAGQSLELLIYGASNRHTGVPDRFTGSGSGTDFTLTITNVQSEDMTNYFCEQYSNFPLTFGAGTKLELKR
- inhibition of Gal3-INSR binding, % [1]: ≤ 30%
- Kd (human Galectin-3 (Gal3) [2]): 18.4 nM

B6: 12G5.D7 (antibody, V domains shown)
VH: QVQLKQSGAELVRPGASVKLSCKASGYTFTDYYINWVKQRPGQGLEWIARIYPGTGNTDYNEKFKGRATLTAEKSSSTAYMQLSSLTSEDSAVYFCARFAYYYGSGGYFDYWGHGTTLTVSS
VL: DILMTQSPSSMSVSLGDTVSITCHASQGINSNMGWLQQKPGKSFKGLIYHATNLEDGVPSRFSGSGSGADYSLTISSLESEDFADYYCVQYAQFPPTFGSGTKLEIK
- inhibition of Gal3-INSR binding, % [1]: ≤ 30%
- Kd (human Galectin-3 (Gal3) [2]): 1.9 nM

B7: 24D12.2H9 (antibody, V domains shown)
VH: QVQLKQSGPGLVQPSQSLSITCTVSGFSLTSYGVHWVRQAPGKGLEWLGVIWSGGSTDYNAAFMSRLSISKDNSKSQVFFKMNSLQADDTAIYYCAKSPDGYDVAWFGYWGQGTLVTVSA
VL: DIVMTQSHKFMSTSVGDRVSITCKASQDVRTAVAWYQQKPGQSPKLLIYWASTRHTGVPDRFTGSGSGTDFTLTLSNVQSEDLADYFCQQYSSYPWTFGGGTKLEIKR
- inhibition of Gal3-INSR binding, % [1]: ≤ 30%
- Kd (human Galectin-3 (Gal3) [2]): 4.13 nM

B8: 9H2.2H10 (antibody, V domains shown)
VH: QVQLQQPGAELVGPGSSVKLSCKASGYTFTNYWIHWVKQRPLQGLEWIGNIDPSDSETHYNQKFKDKATLTVDKSSSTAYMQLSSLTSEDSAVYYCARHGYYDYWGQGTTLTVSS
VL: DIVMTQSHKFMSTSVGDRVSITCKASQDVSTAVAWYQQKPGQSPKLLIYWASTRHTGVPDRFTGSGSGTDYTLTISSVQAEDLALYYCQQHYTTPLTFGAGTKLELKR
- inhibition of Gal3-INSR binding, % [1]: ≤ 30%
- Kd (human Galectin-3 (Gal3) [2]): 2.53 nM

B9: 3B11.2G2 (antibody, V domains shown)
VH: QIQLVQSGPELKKPGETVKISCKTSGYKFKTYVMSWVKQAPGKALKWMGWINTYSGVPTYADDFKGRFAFSLETSASTAYLEIINLKNEDTATYFCARDGNYGDPMDYWGQGTSVTVSS
VL: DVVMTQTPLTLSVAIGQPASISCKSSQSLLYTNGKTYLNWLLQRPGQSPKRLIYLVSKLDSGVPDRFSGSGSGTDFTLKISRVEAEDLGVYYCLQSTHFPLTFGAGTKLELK
- Gal3-INSR binding left, % of unblocked sample [1]: < 5%

B10: 19B5.2E6 (antibody, V domains shown)
VH: QIQLVQSGPELKKPGETVKISCKASGYTFTTYAMSWVKQAPGKGLKWMGWINTYSGVPTYADDLKGRFAFSLETSASTAYLQINNLKNEDTATYFCARGPYAMDYWGQGTSVTVSS
VL: DIQMTQTTSSLSASLGDRVTISCSASQGINNYLNWYQQKPDGTVKLLIYYASSLHSGVPSRFSGSGSGTDYSLTISNLEPEDIATYYCQQYSQVPYTFGSGTKLEIKR
- Gal3-INSR binding left, % of unblocked sample [1]: < 5%

B11: 23H9.2E4 (antibody, V domains shown)
VH: B10 VH
VL: DIQMTQTTSSLSASLGDRVTISCSASQGINNYLNWYQQKPDGTVKLLIYYASSLHSGVPSRFSGSGSGTDYSLTISNLEPEDIATYYCQQYSQVPYTFGSGTKLEIK
- Gal3-INSR binding left, % of unblocked sample [1]: < 5%

B12: F847C.21H6 (antibody, V domains shown)
VH: QIQLVQSGPELKKPGETVKISCKASGYTFTIFGMNWVKQAPGKGLKWMGWVNTYTGEPTYADDFKGRFAFSLETSASTAYLQINNLKNEDTATYFCARGWFAYWGQGTLVTVSA
VL: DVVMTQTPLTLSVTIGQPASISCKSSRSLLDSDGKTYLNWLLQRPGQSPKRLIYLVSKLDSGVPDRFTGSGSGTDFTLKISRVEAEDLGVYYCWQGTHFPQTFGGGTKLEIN
- binding result [10]: binds
- binding result (Peptide 5 of Gal3): binds
- binding result (Peptide 6 of Gal3): binds
